Reference: patent publication US20240059789A1 (Janssen / Centocor, published 2024)
Changes are numbered by the printed parent chain. Blank lines part the entries; values can stand above or below the binder they belong to.

Experiments:
[1] = molecular target: Human CD3 on T cells / Jurkat cells (human, UniProt P07766 23-207); assay: cell-based or functional assay
[2] = molecular target: Human PSMA on prostate cancer cell lines (C4-2B, 22RV1) (human, UniProt Q04609 1-750); assay: cell-based or functional assay
Human PSMA on prostate cancer cell lines (C4-2B, 22RV1), sequence (Q04609 whole entry): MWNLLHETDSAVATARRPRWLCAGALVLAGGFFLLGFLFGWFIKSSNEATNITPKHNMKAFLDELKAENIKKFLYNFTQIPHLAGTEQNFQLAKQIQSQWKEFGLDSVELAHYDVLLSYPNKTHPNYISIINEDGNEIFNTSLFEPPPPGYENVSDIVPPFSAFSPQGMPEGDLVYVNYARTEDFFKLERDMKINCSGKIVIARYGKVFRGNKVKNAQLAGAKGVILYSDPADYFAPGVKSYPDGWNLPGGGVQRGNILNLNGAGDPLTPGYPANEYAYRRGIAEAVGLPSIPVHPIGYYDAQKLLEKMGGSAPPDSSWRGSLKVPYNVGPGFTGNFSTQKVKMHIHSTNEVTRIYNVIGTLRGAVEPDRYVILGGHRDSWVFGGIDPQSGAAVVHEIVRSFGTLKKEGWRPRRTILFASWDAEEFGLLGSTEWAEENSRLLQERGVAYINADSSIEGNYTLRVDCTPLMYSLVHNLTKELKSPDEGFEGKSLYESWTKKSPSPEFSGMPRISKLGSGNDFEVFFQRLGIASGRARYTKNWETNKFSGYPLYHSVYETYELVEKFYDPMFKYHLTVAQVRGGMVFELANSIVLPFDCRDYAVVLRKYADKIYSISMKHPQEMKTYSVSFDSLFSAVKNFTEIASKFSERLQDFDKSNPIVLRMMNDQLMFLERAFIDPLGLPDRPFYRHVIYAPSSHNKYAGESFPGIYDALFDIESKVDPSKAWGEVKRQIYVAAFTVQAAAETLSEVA

Human CD3 on T cells / Jurkat cells, sequence (P07766 23-207 limits assumed): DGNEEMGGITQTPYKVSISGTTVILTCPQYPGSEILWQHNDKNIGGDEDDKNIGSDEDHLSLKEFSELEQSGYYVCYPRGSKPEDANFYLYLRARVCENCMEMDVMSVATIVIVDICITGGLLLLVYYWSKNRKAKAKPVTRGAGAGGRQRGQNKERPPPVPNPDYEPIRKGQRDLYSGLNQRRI

T cell activation EC50 [M] (CD25+ T cells, C4-2B co-culture, 72 h) [1]: 1e-08 M
B1: PS3B918 (bispecific antibody, human IgG1, lambda, L234A L235A)
heavy 1: QVQLQQSGPRLVRPSQTLSLTCAISGDSVFNNNAAWSWIRQSPSRGLEWLGRTYYRSKWLYDYAVSVKSRITVNPDTSRNQFTLQLNSVTPEDTALYYCARGYSSSFDYWGQGTLVTVSSASTKGPSVFPLAPSSKSTSGGTAALGCLVKDYFPEPVTVSWNSGALTSGVHTFPAVLQSSGLYSLSSVVTVPSSSLGTQTYICNVNHKPSNTKVDKKVEPKSCDKTHTCPPCPAPEAAGGPSVFLFPPKPKDTLMISRTPEVTCVVVSVSHEDPEVKFNWYVDGVEVHNAKTKPREEQYNSTYRVVSVLTVLHQDWLNGKEYKCKVSNKALPAPIEKTISKAKGQPREPQVYTLPPSREEMTKNQVSLTCLVKGFYPSDIAVEWESNGQPENNYKTTPPVLDSDGSFLLYSKLTVDKSRWQQGNVFSCSVMHEALHNHYTQKSLSLSPG
light 1: QSALTQPASVSGSPGQSITISCTGTSSNIGTYKFVSWYQQHPDKAPKVLLYEVSKRPSGVSSRFSGSKSGNTASLTISGLQAEDQADYHCVSYAGSGTLLFGGGTKLTVLGQPKAAPSVTLFPPSSEELQANKATLVCLISDFYPGAVTVAWKADSSPVKAGVETTTPSKQSNNKYAASSYLSLTPEQWKSHRSYSCQVTHEGSTVEKTVAPTECS
heavy 2: EVQLVESGGGLVKPGGSLRLSCAASGFTFSRYNMNWVRQAPGKGLEWVSSINSNSRYIYYADSVKGRFTISRDSAKNSLYLQMNSLRAEDTAVYYCAKTMGDYYYYYGMDVWGQGTTVTVSSASTKGPSVFPLAPSSKSTSGGTAALGCLVKDYFPEPVTVSWNSGALTSGVHTFPAVLQSSGLYSLSSVVTVPSSSLGTQTYICNVNHKPSNTKVDKKVEPKSCDKTHTCPPCPAPEAAGGPSVFLFPPKPKDTLMISRTPEVTCVVVSVSHEDPEVKFNWYVDGVEVHNAKTKPREEQYNSTYRVVSVLTVLHQDWLNGKEYKCKVSNKALPAPIEKTISKAKGQPREPQVYTLPPSREEMTKNQVSLTCLVKGFYPSDIAVEWESNGQPENNYKTTPPVLDSDGSFFLYSRLTVDKSRWQQGNVFSCSVMHEALHNHYTQKSLSLSPG
light 2: SSELTQPPSVSGAPGQRVTISCAGSLSNIGAGYDVHWYQQLPGTAPKLLIYGNINRLSGVPERFSGSKSGTSASLAITGLQAEDGADYYCQSYDSSLSSYVFGTGTKVTVLGQPKAAPSVTLFPPSSEELQANKATLVCLISDFYPGAVTVAWKADSSPVKAGVETTTPSKQSNNKYAASSYLSLTPEQWKSHRSYSCQVTHEGSTVEKTVAPTECS
Tumor killing EC50 [M] (C4-2B + PAN-T cells, 72 h, flow cytometry) [2]: 1e-08 M

T cell activation EC50 [M] (CD25+ T cells, C4-2B co-culture, 72 h) [1]: 1.84e-10 M
B2: PS3B928 (bispecific antibody, human IgG1, kappa, lambda, L234A L235A)
heavy 1: EVQLVESGGGLVKPGGSLRLSCAASGFTFSRYNMNWVRQAPGKGLEWVSSISTSSNYIYYADSVKGRFTFSRDNAKNSLDLQMSGLRAEDTAIYYCTRGWGPFDYWGQGTLVTVSSASTKGPSVFPLAPSSKSTSGGTAALGCLVKDYFPEPVTVSWNSGALTSGVHTFPAVLQSSGLYSLSSVVTVPSSSLGTQTYICNVNHKPSNTKVDKKVEPKSCDKTHTCPPCPAPEAAGGPSVFLFPPKPKDTLMISRTPEVTCVVVSVSHEDPEVKFNWYVDGVEVHNAKTKPREEQYNSTYRVVSVLTVLHQDWLNGKEYKCKVSNKALPAPIEKTISKAKGQPREPQVYTLPPSREEMTKNQVSLTCLVKGFYPSDIAVEWESNGQPENNYKTTPPVLDSDGSFLLYSKLTVDKSRWQQGNVFSCSVMHEALHNHYTQKSLSLSP
light 1: DIQMTQSPSSLSASVGDRVTITCRARQSIGTAIHWYQQKPGKAPKLLIKYASESISGVPSRFSGSGSGTDFTLTISSLQPEDFATYYCQQSGSWPYTFGQGTKLEIKRTVAAPSVFIFPPSDEQLKSGTASVVCLLNNFYPREAKVQWKVDNALQSGNSQESVTEQDSKDSTYSLSSTLTLSKADYEKHKVYACEVTHQGLSSPVTKSFNRGEC
heavy 2: not shown
light 2: not shown
Tumor killing EC50 [M] (C4-2B + PAN-T cells, 72 h, flow cytometry) [2]: 4.81e-10 M

T cell activation EC50 [M] (CD25+ T cells, C4-2B co-culture, 72 h) [1]: 1.2e-11 M
B3: PS3B932 (bispecific antibody, human IgG1, kappa, lambda, L234A L235A)
heavy 1: B2 heavy 1
light 1: B2 light 1
heavy 2: EVQLVESGGGLVQPGGSLRLSCAASGFTFSSYAMSWVRQAPGKGLEWVSAISGGIGSTYYADSVKGRFTISRDNSKNTLWLQMNSLRAEDTAVYYCAKDGVGATPYYFDYWGQGTLVTVSSASTKGPSVFPLAPSSKSTSGGTAALGCLVKDYFPEPVTVSWNSGALTSGVHTFPAVLQSSGLYSLSSVVTVPSSSLGTQTYICNVNHKPSNTKVDKKVEPKSCDKTHTCPPCPAPEAAGGPSVFLFPPKPKDTLMISRTPEVTCVVVSVSHEDPEVKFNWYVDGVEVHNAKTKPREEQYNSTYRVVSVLTVLHQDWLNGKEYKCKVSNKALPAPIEKTISKAKGQPREPQVYTLPPSREEMTKNQVSLTCLVKGFYPSDIAVEWESNGQPENNYKTTPPVLDSDGSFFLYSRLTVDKSRWQQGNVFSCSVMHEALHNHYTQKSLSLSPG
light 2: QSVLTQPPSVSAAPGQKVTISCSGSSSNIGNNYVSWYQQLPGTAPKLLIYDNNKRPSGIPDRFSGSKSGTSATLGITGLQTGDEADYYCGTWDSSLSAYVFGTGTKVTVLGQPKAAPSVTLFPPSSEELQANKATLVCLISDFYPGAVTVAWKADSSPVKAGVETTTPSKQSNNKYAASSYLSLTPEQWKSHRSYSCQVTHEGSTVEKTVAPTECS
Tumor killing EC50 [M] (C4-2B + PAN-T cells, 72 h, flow cytometry) [2]: 6.42e-12 M

T cell activation EC50 [M] (CD25+ T cells, C4-2B co-culture, 72 h) [1]: 6.01e-11 M
B4: PS3B933 (bispecific antibody, human IgG1, kappa, lambda, L234A L235A)
heavy 1: B2 heavy 1
light 1: B2 light 1
heavy 2: B3 heavy 2 with I55S, W80Y, T91S
light 2: B3 light 2
Tumor killing EC50 [M] (C4-2B + PAN-T cells, 72 h, flow cytometry) [2]: 4.76e-11 M

T cell activation EC50 [M] (CD25+ T cells, C4-2B co-culture, 72 h) [1]: 4.81e-12 M
B5: PS3B934 (bispecific antibody, human IgG1, kappa, lambda, L234A L235A)
heavy 1: B2 heavy 1
light 1: B2 light 1
heavy 2: B3 heavy 2
light 2: B3 light 2 with N31I, Y99V, T103G, V107L
Tumor killing EC50 [M] (C4-2B + PAN-T cells, 72 h, flow cytometry) [2]: 7.24e-12 M

T cell activation EC50 [M] (CD25+ T cells, C4-2B co-culture, 72 h) [1]: 6.72e-12 M
B6: PS3B935 (bispecific antibody, human IgG1, kappa, lambda, L234A L235A)
heavy 1: B2 heavy 1
light 1: B2 light 1
heavy 2: B3 heavy 2 with I55S, W80Y, T91S
light 2: B3 light 2 with N31I, Y99V, T103G, V107L
Tumor killing EC50 [M] (C4-2B + PAN-T cells, 72 h, flow cytometry) [2]: 7.16e-12 M

T cell activation EC50 [M] (CD25+ T cells, C4-2B co-culture, 72 h) [1]: 4.59e-12 M
B7: PS3B925 (bispecific antibody, human IgG1, kappa, lambda, L234A L235A)
heavy 1: B2 heavy 1
light 1: B2 light 1
heavy 2: B3 heavy 2 with A23T, T28I, I55Y, S57A, T58P, S63T, W80Y, Y110D, T115I
light 2: B3 light 2 with Y50F
Tumor killing EC50 [M] (C4-2B + PAN-T cells, 72 h, flow cytometry) [2]: 7.98e-12 M
